# Patent US11879149B2, “Quantification method of ethanolamine phosphate, oxidoreductase for quantification, composition for quantification, kit for quantification and sensor for quantification” (KIKKOMAN CORPORATION, priority 2018, dated 2024)
# Assays:
# [1] = Dehydrogenase activity measurement of AgPEAOX (1-MPES/WST-1, A438); type: biochemical; conditions: pH 8.5; final concentration of 50 mM EAP; 37° C.
# Protocol: After incubation of 609 μl of the reagent consisting of the composition of Table 3 for 5 minutes at 37° C., 21 μl of the substrate solution (1500 mM EAP) was added and mixed, and the amount of change at A438 (ΔAS) per 1 minute at 37° C. was measured using the spectrophotometer (U-3900, manufactured by Hitachi High-Tech Science Corporation).
# Next, 21 μl of ion-exchanged water was added instead of the substrate solution and mixed, and the amount of change at A438 (ΔA0) per 1 minute at 37° C. was measured. 1-methoxy-5-ethylphenazinium ethyl sulfate (1-MPES), and 2-(4-iodophenyl)-3-(4-nitrophenyl)-5-(2,4-disulfophenyl)-2H-tetrazolium monosodium salt (WST-1) manufactured by DOJINDO LABORATORIES were used.
# Dehydrogenase activity was calculated based on the following formula: Dehydrogenase activity (U/ml)=(ΔAS−ΔA0)×630×df/(37.0×x)=17.0×(ΔAS−ΔA0)×df/x • 37.0: Millimolar extinction coefficient (mM^−1 cm^−1) of WST-1 formazan dye for 438 nm-Wavelength Light • df: Dilution rate of enzyme solution (Quantification of EAP by AgPEAOX)
# [2] = Oxidase activity measurement and pH dependence of AgPEAOX (4-AA/TOOS/POD, A555); type: biochemical
# Protocol: Oxidase activity was measured for the expressed, purified AgPEAOX by the methods described above. After incubating 609 μl of a reagent consisting of the composition of Table 5 at 37° C. for 5 minutes, 21 μl of a substrate solution (1500 mM EAP) was added and mixed, and the amount of change at A555 (ΔAS) per 1 minute at 37° C. was measured using the spectrophotometer (U-3900, manufactured by Hitachi High-Tech Science Corporation).
# Next, 21 μl of ion-exchanged water was added instead of the substrate solution and mixed, and the amount of change at A555 (ΔA0) per 1 minute at 37° C. was measured. […]
# The oxidase activity was calculated based on the following formula: Oxidase activity (U/ml)=(ΔAS−ΔA0)×630×df/(39.2×0.5×x)=32.1×(ΔAS−ΔA0)×df/x • 39.2: Millimolar extinction coefficient (mM^−1cm^−1) of 4-AA-TOOS Condensation dye for 555 nm-wavelength light • df: Dilution rate of enzyme solution (pH-Dependence Measurement of Catalytic Reaction of AgPEAOX)
# When the pH dependence of catalytic reaction of AgPEAOX was measured, the activity was measured by replacing Bicine-NaOH buffer solution pH 8.5 contained in the reagent for activity measurement in Table 5 with a potassium phosphate buffer solution, MOPS-NaOH buffer solution, or Bicine-NaOH adjusted to a predetermined pH.
substance,measurement,setting,value
"AgPEAOX: phenylethylamine oxidase derived from Arthrobacter globiformis, UniProt ID P46881, SEQ ID NO: 9",dehydrogenase activity of purified AgPEAOX solution,[1],0.069 U/ml (*purified AgPEAOX solution)
same,oxidase activity of purified AgPEAOX solution,"[2]; pH 8.5, final concentration of 50 mM EAP, 37° C.",2.29 U/ml (*purified AgPEAOX solution)
same,optimum pH for the catalytic reaction (oxidase activity),"[2]; potassium phosphate, MOPS-NaOH or Bicine-NaOH buffers, FIG. 3",8.5
